In doi:10.1101/2023.04.17.537198, “Bitesize bundles F-actin and influences actin remodeling in syncytial Drosophila embryo development” (bioRxiv, 2025):

Tests used:
[1] = target: T1, Rabbit skeletal muscle actin, polymerised (F-actin) (rabbit, UniProt P68135 1-377); test: cell-based or functional assay
[2] = target: T1, Rabbit skeletal muscle actin, …; test: co-sedimentation; high-speed pelleting: 0.5 uM BtszB-CT with 0, 0.1, 0.25, 0.5, 1, 2, 4 uM F-actin, 30 min at room temperature, 316,000 x g for 20 min at 25°C; supernatant and pellet on Coomassie gels, densitometry; BtszB-CT pelleted without F-actin subtracted; fit to a Hill equation (cooperative binding model); settings: both partners purified

TIRF microscopy bundling assay: filament/bundle fluorescence intensity at FWHM, normalised to the mean of the control reaction (2 uM F-actin), with 1 uM BtszB-CT [1]: 3.4 fold of the control reaction (2 uM F-actin)
Kd [2]: 450 nM
B1: C-terminal fragment of Bitesize isoform B (BtszB-CT) (domain or fragment)
chain: VKGQVEFAMQYNYKLSALEVHVVRCKDLAAVDAKRNRSDPYVKVYLLPDKSKAGKRKTKVKKHTLNPIFDETMRFHTPISSLESRTLWLTVWHSDMFGRNDFLGEVSVNLQGRLFDNPQSQWYLLQERSEPFDEVATYRGDIVVGLKYIPPENIKSSFFSRGSSITGSSSNLRKFGGSIKSVASKSERTSKGGQLHVLVKEAKHLSPIKANGTCDAFCKSYLLPDRTRSSKQKTPVVKRTLHPSWNYTFVYEDVSLEELSERALELTVWDHDRLASNEFVGGIRFSLGTGRSYGRQVEWMDATGKELSLWQNMLDRPNFWVEGSLVLRSSLDGIRANLP
